# Values quoted from earlier work as cited in article PMC10170156.
# Target: EGFR (Homo sapiens) (UniProt P00533)
substance,measurement,value
EGF (from UniProt P01133),Kd,4 nM
